The text below walks through data of US20150183871A1 (AbbVie / Abbott, published 2015).

Assay [1] deals with T1, fc-coupled full length human RGM A (47-422) (human).
T1 construct: the legends call the protein fc-coupled full length hRGM A fragment (47-422, counted on hRGM A); also called full length fc-conjugated hRGM A; Human RGM A-fc
Description: competition ELISA: fc-conjugated full length hRGM A (0.5 µg/ml) binding to coated BMP-2. As to the method: After the incubation, unbound BMP-2 was removed in 3 separate wash steps with PBS containing 0.02% Tween 20. Blocking of the BMP-2 coated plates was done by adding 2001-JI per well of a 3% Bovine serum albumin (BSA), PBS, Tween 20(0.02%) blocking solution. After incubation for 1 h at 37° C., the blocking solution was removed and RGM A fragments or full length protein, conjugated with a human fc tag, with or without antibody, was added. In some experiments antibodies were preincubated with the fc-conjugated hRGM A proteins for 1 h at room temperature. The BMP-2 coated plates were incubated with hRGM A with or without antibodies for 1 hat 37° C. After 3 wash steps with PBS-Tween 20 (0.02%), plates were incubated with a Biotin-labeled anti-human fc antibody (1 mg/ml, diluted 1:200 in PBS containing 0.6% BSA, 0.02% Tween 20), Jackson ImmunoResearch catalog no: 709-065-149, for 1 h at 37° C. Unbound antibody was removed by 3 wash steps with PBS-Tween 20 (0.02%). […] Unbound Peroxidase-complex was removed in 3 subsequent wash steps (PBS-Tween 20 (0.02%) before adding the Peroxidase substrate (Immuno Pure TMB, Pierce#34021). The substrate reaction was stopped 1-30 min after its addition to the wells by 2.5 M H2SO4. Plates were analysed (OD determination) at a wave length of 450 nm using an Anthos photometer. […]

Another assay deals with T2, recombinant rat RGM A (rat).
T2 construct: also called rRatRGMA
T2 chain: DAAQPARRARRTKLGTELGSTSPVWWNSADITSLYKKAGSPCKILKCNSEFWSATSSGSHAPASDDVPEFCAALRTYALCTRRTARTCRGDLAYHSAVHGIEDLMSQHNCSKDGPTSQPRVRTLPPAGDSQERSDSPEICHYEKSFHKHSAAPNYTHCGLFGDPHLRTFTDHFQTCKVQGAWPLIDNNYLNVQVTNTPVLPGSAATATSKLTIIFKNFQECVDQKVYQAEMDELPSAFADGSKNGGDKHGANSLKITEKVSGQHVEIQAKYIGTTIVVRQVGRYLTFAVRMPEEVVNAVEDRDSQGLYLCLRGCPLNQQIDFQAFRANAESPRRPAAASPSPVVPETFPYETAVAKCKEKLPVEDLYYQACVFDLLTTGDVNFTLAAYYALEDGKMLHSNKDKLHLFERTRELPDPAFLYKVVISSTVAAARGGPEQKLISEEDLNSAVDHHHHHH
The assay is described as follows: direct ELISA on rRatRGMA. On the technique in general: ELISA stands for enzyme-linked immunosorbent assay.

Assay [2] has as its target T3, rat RGM A overexpressed on cells (BAF3 cells) (rat).
T3 construct: also called BAF3 cells overexpressing ratRGM A
T3 chain: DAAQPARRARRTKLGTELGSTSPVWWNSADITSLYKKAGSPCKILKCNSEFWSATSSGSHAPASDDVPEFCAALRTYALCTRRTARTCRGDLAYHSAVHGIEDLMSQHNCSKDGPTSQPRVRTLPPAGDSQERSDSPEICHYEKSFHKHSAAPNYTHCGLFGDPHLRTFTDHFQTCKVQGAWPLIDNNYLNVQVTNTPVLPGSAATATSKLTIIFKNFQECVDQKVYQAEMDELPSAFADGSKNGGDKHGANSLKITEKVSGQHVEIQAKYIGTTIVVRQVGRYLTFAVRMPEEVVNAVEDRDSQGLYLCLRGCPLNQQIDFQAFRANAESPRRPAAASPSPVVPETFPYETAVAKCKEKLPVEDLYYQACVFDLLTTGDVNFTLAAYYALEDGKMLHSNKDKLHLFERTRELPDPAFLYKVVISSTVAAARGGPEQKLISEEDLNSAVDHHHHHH
The assay is described as follows: FACS on BAF3-ratRGMA stable cell line, anti-rat IgG PE. The protocol:
(ii) FACS analysis. Stable transfectants of HEK293 cells overexpressing hRGM A or BAF3 cells overexpressing ratRGM A were subjected to staining with unlabelled 5F9 or 8D1 MABs for more than 15 minutes at 4° in 0.1% BSNPBS buffer. Detection was carried out with a mouse anti-rat IgG PE antibody.
(§1) FAGS was carried out as described in section (ii).

The target in assay [3] is T4, fc-coupled human RGM A light chain, fragment 0 (47-168) (human).
T4 construct: also called hRGM A light chain - fc; hRGMA 47-168/HuIgGFc
The assay is described as follows: direct ELISA on hRGMA 47-168/HuIgGFc.

The target of assay [4] is T5, recombinant purified human RGM A (human, UniProt Q96B86 48-424, limits assumed).
T5 construct: Bought recombinant protein (R&D Systems); also called hRGM A; hRGMA
T5 sequence: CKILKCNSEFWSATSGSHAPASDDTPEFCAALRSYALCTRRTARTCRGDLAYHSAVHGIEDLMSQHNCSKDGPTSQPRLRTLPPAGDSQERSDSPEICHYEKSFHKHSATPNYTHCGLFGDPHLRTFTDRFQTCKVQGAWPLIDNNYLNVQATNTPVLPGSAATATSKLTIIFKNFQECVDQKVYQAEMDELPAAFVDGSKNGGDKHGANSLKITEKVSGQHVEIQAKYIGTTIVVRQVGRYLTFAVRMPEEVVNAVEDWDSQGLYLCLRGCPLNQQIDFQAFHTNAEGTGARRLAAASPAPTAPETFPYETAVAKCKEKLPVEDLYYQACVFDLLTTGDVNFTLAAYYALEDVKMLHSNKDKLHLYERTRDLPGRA
The assay is described as follows: direct ELISA, plate coated with hRGM A at 2 µg/ml, biotinylated antibody in 1:5 dilution steps, streptavidin-HRP, OD 450 nm. As to the method:
(i) Direct binding ELISA plates were coated with hRGM A (R&D) at a concentration of 2 μg/ml in Carbonate buffer. The wells were then blocked with 2% Blocking solution (Bio-Rad) for 1 hour at room temperature. Biotinylated antibodies were serially diluted with a 1:5 dilution factor in 0.1% BSNPBS down the plate and incubated for 1 hour at room temperature. The detection reagent was a 1:10,000 dilution of streptavidin-HRP in 0.1% BSNPBS. Detection was done with a TMB reagent, which was stopped with 2N H₂SO₄ and OD was read at 450 nm.
as §1

T4 sequence (chain, as listed by the source): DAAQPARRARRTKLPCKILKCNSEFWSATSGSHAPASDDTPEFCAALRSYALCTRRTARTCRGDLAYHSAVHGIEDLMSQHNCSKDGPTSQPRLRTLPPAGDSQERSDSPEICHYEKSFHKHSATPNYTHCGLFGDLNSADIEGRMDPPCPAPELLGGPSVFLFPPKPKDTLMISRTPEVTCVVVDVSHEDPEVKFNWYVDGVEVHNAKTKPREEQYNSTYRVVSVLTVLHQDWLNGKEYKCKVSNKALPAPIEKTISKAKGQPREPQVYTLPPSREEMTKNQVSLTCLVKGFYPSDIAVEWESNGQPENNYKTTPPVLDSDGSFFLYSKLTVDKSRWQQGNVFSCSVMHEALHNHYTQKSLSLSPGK
T1 sequence (chain, as listed by the source): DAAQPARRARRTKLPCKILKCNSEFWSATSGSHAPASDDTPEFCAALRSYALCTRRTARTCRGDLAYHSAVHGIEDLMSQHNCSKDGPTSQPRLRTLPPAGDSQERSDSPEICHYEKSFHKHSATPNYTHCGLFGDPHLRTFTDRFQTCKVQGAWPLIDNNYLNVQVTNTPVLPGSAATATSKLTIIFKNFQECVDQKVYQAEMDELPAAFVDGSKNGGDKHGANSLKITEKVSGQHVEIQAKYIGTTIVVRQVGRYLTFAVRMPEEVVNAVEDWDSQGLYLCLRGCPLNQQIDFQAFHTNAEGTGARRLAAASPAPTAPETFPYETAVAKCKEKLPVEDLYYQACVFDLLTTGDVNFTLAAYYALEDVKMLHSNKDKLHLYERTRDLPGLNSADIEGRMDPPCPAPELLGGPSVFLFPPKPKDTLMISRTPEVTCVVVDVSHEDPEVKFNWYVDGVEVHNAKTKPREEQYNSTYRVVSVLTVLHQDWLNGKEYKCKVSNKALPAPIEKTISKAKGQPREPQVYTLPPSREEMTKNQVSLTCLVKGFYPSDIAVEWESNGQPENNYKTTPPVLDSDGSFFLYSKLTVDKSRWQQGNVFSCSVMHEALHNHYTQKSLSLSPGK

B1: rat anti-human RGM A monoclonal antibody 8D1 (antibody, V domains shown)
VH: EVQLQQSGPELVKPGTSVKMSCKTSGYTFTSYVMHWVKQKPGQGLEWIGYIIPYNDNTKYNEKFKGKATLTSDKSSSTAYMELSSLTSEDSAVYYCARRNEYYGSSFFDYWGQGTTLTVSS
VL: DIQMTQSPASLSASLEEIVTITCQASQDIDNYLAWYHQKPGKSPRLLIYGATNLADGVPSRFSGSRSGTQFSLKINRLQIEDLGIYYCLQGYIPPRTFGGGTKLELKR
notes: Rat hybridoma antibody; also called ML68-8D1; MAB 8D1
As to B1, the binding result in assay [1] is recorded as “binds”; with recombinant rat RGM A, “no binding”; in assay [2], “no binding”; in assay [3], “binds”. The “EC50 (read off the curve)” value in assay [4] is approximately 0.2 µg/mL.

One may read the EC50 (read off the curve) as the concentration needed to bring the measured effect to its halfway point.
